The results in this text go back to the RNAGym collection of RNA variant scans (doi:10.7554/elife.80360).

B1: Hairpin Ribozyme (parent)
chain: GUCCUCUUUCACGUGCGCGUGAAAGAGAGAAGUGAACCAGAGAAACACACGUUGUGGUAUAUUACCUGGUA

Variants of B1 are the subject of this series. Briefly: self-cleavage, relative activity (ratio to wild type); higher = more cleavage; co-transcriptional.
Turning to GCCCUCUUUCACGUGCGCGUGGAAGAGAGAAGUGAACCAGAGAAACACACGUUGUGGUAUAUUACCUGGUA, the self-cleavage came to 0.0938.
GCCCUCUUUCACGUGCGCGUGAAAGAGAGAAGUGAACUAGAGAAACACACGUUGUGGUAUAUUACCUGGUA: the self-cleavage was found to be 0.147.
Take GCCCUCUUUCACGUGCGCGUGAAAGAGAGAAGUGAACAAGAGAAACACACGUUGUGGUAUAUUACCUGGUA: the self-cleavage worked out at 0.0742.
In the case of GCCCUCUUUCACGUGCGCGUGAAAGAGAGAAGUGAAGCAGAGAAACACACGUUGUGGUAUAUUACCUGGUA, the self-cleavage worked out at 0.0267.
Next, GCCCUCUUUCAAGUGCGCGUGAAAGAGAGAAGUGAACCAGAGAAACACACGUUGUGGUAUAUUACCUGGUA: 0.205.
Next, GCCCUCUUUCAUGUGCGCGUGAAAGAGAGAAGUGAACCAGAGAAACACACGUUGUGGUAUAUUACCUGGUA: 0.226; GCCCUCUUUCAGGUGCGCGUGAAAGAGAGAAGUGAACCAGAGAAACACACGUUGUGGUAUAUUACCUGGUA: 0.0835.
In the case of GCUCUCUUUCACGUGCGCGUGAAAGAGAGAAGUGAACCAGAGAAACACACGUUGUGGUAUAUUACCUGGUA, the self-cleavage turned out to be 0.131.
On to GCGCUCUUUCACGUGCGCGUGAAAGAGAGAAGUGAACCAGAGAAACACACGUUGUGGUAUAUUACCUGGUA, for which the self-cleavage was determined as 0.214.
As for GACCUCUUUCACGUGCGCGUGAAAGAGAGAAGUGAACCAGAGAAACACACGUUGUGGUAUAUUACCUGGCA, the self-cleavage was 0.288.
As to GCCCUCUUUCACGUGCGCGUGAAAGAGAGAAGUGAACCAGAGAAACACACGUUGUGGUGUAUUACCUGGUA, the self-cleavage was found to be 0.173.
For GCCCUCUUUCACGUGCGCGUGAAAGAGAGAAGUGAACCAGAGAAACACACGUUGUGGUCUAUUACCUGGUA, the self-cleavage was 0.0741.
On to GCCCUCUUUCACGUGCGCGUGAAAGAGAGAAGUGAACCAGAGAAACACAGGUUGUGGUAUAUUACCUGGUA, for which the self-cleavage stood at 0.144.
As to GCCCUCUUUCACGUGCGCGUGAAAGAGAGAAGUGAACCAGAGAAACACAAGUUGUGGUAUAUUACCUGGUA, the self-cleavage is 0.0705.
GACCUCUUUCACGUGCGCGUGAAAGAGAGAAGUGAACCAGAGAAACACACGUUGUGGUAUAUUACCAGGUA: the self-cleavage worked out at 0.0652.
Next, GCCCUCUUUCACGUGCGCGUGAAAGAGAGAAGUGAACCAGAGAAAAACACGUUGUGGUAUAUUACCUGGUA: 0.232; GCCCUCUUUCACGUGCGUGUGAAAGAGAGAAGUGAACCAGAGAAACACACGUUGUGGUAUAUUACCUGGUA: 0.162.
Turning to GCCCUCUUUCACGUGCGCGUGAAAGAGAGAAGUGAACCAGAGAAACACACGUUGUGUUAUAUUACCUGGUA, the self-cleavage came to 0.131.
Next, GACCUCUUUCACGUGCGCGUGAAAGAGAGAAGUGAACCAGAGAAACACACGUUGUGGUAUAUAACCUGGUA: 0.0695; GACCUCUUUCACGUGCGCGUGAAAGAGAGAAGUGAACCAGAGAAACACACGUUGUGGUAUAUCACCUGGUA: 0.0787; GCCCUCUUUCACGUGCGCGUGAAAGAGAGAAGUGAACCAGAGAAACACACGUUGUGGUAUAUUACCUGGUC: 0.444.
GACCUCUUUCACGUGCGCGUGAAAGAGAGAAGUGAACCAGAGAAACACACGAUGUGGUAUAUUACCUGGUA: the self-cleavage turned out to be 0.285.
As for GACCUCUUUCACGUGCGCGUGAAAGAGAGAAGUGAACCAGAGAAACACACGCUGUGGUAUAUUACCUGGUA, the self-cleavage amounted to 0.169.
Consider GCCCUCUUUCACGUGCGCAUGAAAGAGAGAAGUGAACCAGAGAAACACACGUUGUGGUAUAUUACCUGGUA, for which the self-cleavage is 0.149.
Regarding GCCCUCUUUCACGUGCGCCUGAAAGAGAGAAGUGAACCAGAGAAACACACGUUGUGGUAUAUUACCUGGUA, the self-cleavage came out at 0.128.
Next, GCCCUCUUUCACGUGCGCGUGAAAGAGAGAAGUAAACCAGAGAAACACACGUUGUGGUAUAUUACCUGGUA: 0.217; GCCCUCUUUCACGUGCGCGUGAAAGAGCGAAGUGAACCAGAGAAACACACGUUGUGGUAUAUUACCUGGUA: 0.117; GCCCUCUUUCACGUGCGCGUGAAAGAGGGAAGUGAACCAGAGAAACACACGUUGUGGUAUAUUACCUGGUA: 0.
Turning to GCCCUCUUUCACGUGCGCGUGAAAGAGAGAAGUGAACCAGAUAAACACACGUUGUGGUAUAUUACCUGGUA, the self-cleavage amounted to 0.203.
Turning to GCCCUCUUUCACGUGCGCGUGAAAGAGAGAAGUGAACCAGAGAAACACGCGUUGUGGUAUAUUACCUGGUA, the self-cleavage was determined as 0.0598.
Next, GCCCUCUUUCACGUGCGCGUGAAAGAGAGAAGUGAACCAGAGAAACACCCGUUGUGGUAUAUUACCUGGUA: 0.189; GCCCUCUUUCACGUGCGCGUGAAAGAGAGACGUGAACCAGAGAAACACACGUUGUGGUAUAUUACCUGGUA: 0.226; GACCUCUUUCACGUGCGCGUGAAAGAGAGAAGUGAACCAGAGAAACACACGUGGUGGUAUAUUACCUGGUA: 0.134.
Turning to GACCUCUUUCACGUGCGCGUGAAAGAGAGAAGUGAACCAGAGAAACACACGUUGGGGUAUAUUACCUGGUA, the self-cleavage turned out to be 0.109.
Consider GCCCUCUUUCACGUGCGCGUGAAAGAGAGAAGUGAACCAGAGAAACACACGUUGUGGUAUUUUACCUGGUA, for which the self-cleavage is 0.0427.
With GCCCUCUUUCACGUGCGCGUGAAAGAGAGAAGUGAACCAGAGAUACACACGUUGUGGUAUAUUACCUGGUA, the self-cleavage worked out at 0.201.
For GCCCUCUUUCACGUGCGCGUGAAAGAGAGAAGUGAACCAGAGAAACACACGUUUUGGUAUAUUACCUGGUA, the self-cleavage amounted to 0.193.
Take GCCCUCUUUCACGUGCGCGUGAAAGAGAGAAGUGAACCAGAGAAACACACGUUGUAGUAUAUUACCUGGUA: the self-cleavage amounted to 0.177.
With GCCCUCUUUCACGUGCGCGUGAAACAGAGAAGUGAACCAGAGAAACACACGUUGUGGUAUAUUACCUGGUA, the self-cleavage is 0.118.
Next, GACCUCUUUCACGUGCGCGUGAAAGAGAGAAGUGAACCAGAGAAACACACGUUGUGGAAUAUUACCUGGUA: 0.164; GACCUCUCUCACGUGCGCGUGAAAGAGAGAAGUGAACCAGAGAAACACACGUUGUGGUAUAUUACCUGGUA: 0.162.
Consider GACCUCUAUCACGUGCGCGUGAAAGAGAGAAGUGAACCAGAGAAACACACGUUGUGGUAUAUUACCUGGUA, for which the self-cleavage is 0.279.
With GACCUCUGUCACGUGCGCGUGAAAGAGAGAAGUGAACCAGAGAAACACACGUUGUGGUAUAUUACCUGGUA, the self-cleavage amounted to 0.201.
Next, GACCUCUUUCACGCGCGCGUGAAAGAGAGAAGUGAACCAGAGAAACACACGUUGUGGUAUAUUACCUGGUA: 0.265.
Take GCCCUCUUUCCCGUGCGCGUGAAAGAGAGAAGUGAACCAGAGAAACACACGUUGUGGUAUAUUACCUGGUA: the self-cleavage was 0.229.
On to GCCCUCUUUCACGUGCGCGUGAAAGAGAGAAGUGAACCCGAGAAACACACGUUGUGGUAUAUUACCUGGUA, for which the self-cleavage worked out at 0.0668.
As to GCCCUCUUUCACGUGCGCGUGAAAGAGAGAAGUGAACCGGAGAAACACACGUUGUGGUAUAUUACCUGGUA, the self-cleavage stood at 0.0933.
Regarding GCCCUCUUUCACGUGCGCGUGAAAGUGAGAAGUGAACCAGAGAAACACACGUUGUGGUAUAUUACCUGGUA, the self-cleavage was found to be 0.13.
Regarding GACCUCUUUCACGUGCGCGCGAAAGAGAGAAGUGAACCAGAGAAACACACGUUGUGGUAUAUUACCUGGUA, the self-cleavage was 0.336.
Consider GACCUCUUUCACGUGCGCGAGAAAGAGAGAAGUGAACCAGAGAAACACACGUUGUGGUAUAUUACCUGGUA, for which the self-cleavage stood at 0.198.
Take GCCCUUUUUCACGUGCGCGUGAAAGAGAGAAGUGAACCAGAGAAACACACGUUGUGGUAUAUUACCUGGUA: the self-cleavage was 0.245.
For GCCCUGUUUCACGUGCGCGUGAAAGAGAGAAGUGAACCAGAGAAACACACGUUGUGGUAUAUUACCUGGUA, the self-cleavage is 0.0983.
As to GCCCUAUUUCACGUGCGCGUGAAAGAGAGAAGUGAACCAGAGAAACACACGUUGUGGUAUAUUACCUGGUA, the self-cleavage was determined as 0.0756.
Consider GCCCUCUUUCACGUGGGCGUGAAAGAGAGAAGUGAACCAGAGAAACACACGUUGUGGUAUAUUACCUGGUA, for which the self-cleavage amounted to 0.246.
In the case of GCCCUCUUUCACGUGCGCGUGAAAGAGAGAAGUGAACCAGAGAAACGCACGUUGUGGUAUAUUACCUGGUA, the self-cleavage is 0.
Next, GCCCUCUUUCACGUGCGCGUGAAAGAGAGAAGUGAACCAGAGAAACUCACGUUGUGGUAUAUUACCUGGUA: 0.203.
For GCCCUCUUUCACGUGCGCGUGAAAGAGAGAAGUGAACCAGAGAAACACACGUUGUGGUAUAUUCCCUGGUA, the self-cleavage was determined as 0.0771.
Next, GCCCUCUUUCACGUGCGCGUGAAAGAGAGAAGUGAACCAGAGAAACACACGUUGUGGUAUAUUUCCUGGUA: 0.107; GACCUCUUACACGUGCGCGUGAAAGAGAGAAGUGAACCAGAGAAACACACGUUGUGGUAUAUUACCUGGUA: 0.201; GCCCUCUUUCACGUGCGCGUGAAAGAGAGUAGUGAACCAGAGAAACACACGUUGUGGUAUAUUACCUGGUA: 0.0598.
In the case of GCCCUCUUUCACGUGCGCGUGAAAGAGAGCAGUGAACCAGAGAAACACACGUUGUGGUAUAUUACCUGGUA, the self-cleavage was determined as 0.185.
Take GCCCUCUUUCACGUGCGCGUGAAAGAGAGAAGUGAACCAGAGAAACACACAUUGUGGUAUAUUACCUGGUA: the self-cleavage was determined as 0.219.
Turning to GCCCUCUUUCACGUGCGCGUGAAAGAGAGAAGUGAACCAGAGAAACACACCUUGUGGUAUAUUACCUGGUA, the self-cleavage came out at 0.506.
Next, GCCCUCUUUCACGUGCGCGUGAAAGAGAGAAGUGAACCAGAGAAACACACGUUGUGGUAUAUUACCUGCUA: 0.0747; GCCCUCUUUCACGUGCGCGUGAAAGAGAGAAGUGAACCAGAGAAACACACGUUGUGGUAUAUUACCUGAUA: 0.0698; GCCCUCUUUCACGUGCGCGUGAAAGAGAGAAGUGAACCAGAGAAACACACGUUGUGGUAUAUUACUUGGUA: 0.0916.
Next, GCCCUCUUUCACGUGCGCGUGAAAGAGAGAAGUGAACCAGGGAAACACACGUUGUGGUAUAUUACCUGGUA: 0.158; GCCCUCUUUCACGUGCGCGUGAAAGAGAGAAGUGAACCAAAGAAACACACGUUGUGGUAUAUUACCUGGUA: 0.192.
Next, GCCCUCUUUCACGUGCGCGUGAAAGAGAGAAGUGAACCACAGAAACACACGUUGUGGUAUAUUACCUGGUA: 0.0737.
As to GCCCUCUUUCACGUGCGCGUGAAAGAGAGAAGUGAACCAGAGAAACACACGUUGUGGUAUAUUAUCUGGUA, the self-cleavage amounted to 0.162.
For the variant GCCCUCUUUCACGUGCGCGUGAAAGAGAGAAGUGAACCAGAGAAACACACGUUGUGGUAUAUUAGCUGGUA, the self-cleavage amounted to 0.0439.
Turning to GCCCUCUUUCACGUGCGCGUGAAAGAGAGAAGUGAACCAGAGAAACACACGUUGUGGUAUAUUACCUAGUA, the self-cleavage was 0.0299.
For GCCCUCUUUCACGUGCGCGUGAAAGAGAGAAGUGAACCAGAGAAACACACGUUGUGGUAUAUUACCUCGUA, the self-cleavage turned out to be 0.187.
For GCCCUCUUUCACGUGCGCGUGAAAGAAAGAAGUGAACCAGAGAAACACACGUUGUGGUAUAUUACCUGGUA, the self-cleavage came to 0.129.
Next, GCCCUCUUUCACGUGCGCGUGAAAGAUAGAAGUGAACCAGAGAAACACACGUUGUGGUAUAUUACCUGGUA: 0.0539; GCCCUCUUUCACGUGCGCGUGAAAGAGAGAAGUGCACCAGAGAAACACACGUUGUGGUAUAUUACCUGGUA: 0.159.
